{"source": "paper PMC11109203", "about": "(Nature Communications, 2024)", "binders": {"B1": {"name": "GST-Sad1_(1-169) (domain or fragment, S. pombe, UniProt Q09825 1-169, looked up)", "chain": "MFTNTPVGGKRERQNGAHPAWSTLGANSAQIHQNTADLASKMHKLRYTKIRSPPTRVSIESITPKQRFPAPNFEQAYHSNIRYEQEESDNEEFENVVKNGHEASTNVFYESDGDDEEFVNEEYENSIDEESDDEGYSLNEDTTATNASFRYPMNQRSTRKSQFYSSKFK", "notes": "pGEX-6P-1 vector; source: E. coli Rosetta, purified (glutathione Sepharose 4B, eluted with reduced glutathione, Superdex); not shown: GST, N-terminal, kept"}, "B2": {"name": "Sad1_(1-169) (domain or fragment, S. pombe, UniProt Q09825 1-169, looked up)", "chain": "B1 chain", "notes": "Cleavage is told in general for proteins not needed with their tag; used in ITC, SEC and MST; also called Sad1NTD; source: E. coli Rosetta, purified (glutathione Sepharose 4B, 3C digestion on beads, Superdex); not shown: GST, N-terminal, cleaved"}, "B3": {"name": "Sumo-Sir2 fusion protein (enzyme, S. pombe, UniProt O94640 1-475, looked up)", "chain": "MASNPLDNNMPTTPVEEKIPVASYSPSSSGSSSGASLLVDIMCGSKETEDEEVDSDEWDKPETENISDLDERSEMVRYLRASGYAKFLEKYLIEEELPVRSILKKLGINLPSALEEFEDIDLLPLLKEVLKREVARRIKLPHFNTFEDVVNLLKKAKNVVVLVGAGISTSLGILDFRSDNGFYARLARHGLSEPSEMFDIHTFRENPEIFYTFARDLLPETNHYSPSHAFIRLLEKKNKLSTLFTQNIDNLEKKTGLSDNKIIQCHGSFATATCIKCKHKVDGSELYEDIRNQRVSYCNECGKPPLKLRRVGQNKKEKHYFSDGDSESSEDDLAQPGIMKPDITFFGEALPDSFFNKVGSGELEETDLLICIGTSLKVAPVSELISVIPPTTPQIYISRTPVRHTQFDVNFLSPYCDWVIVEICKRAGWLNELQALCDLPECHSGSKTRAFETDLDIKFEEPSTYHITSTTNGSC", "notes": "Sir2, histone deacetylase, S. pombe; The legend says that some untagged Sir2 from self-proteolysis was present; source: E. coli Rosetta, purified (Ni-NTA, eluted with imidazole, Superdex); not shown: 6*His-Sumo, N-terminal, kept"}, "B4": {"name": "Clr3 (untagged) (enzyme, S. pombe, UniProt P56523 1-687, looked up)", "chain": "MLASNSDGASTSVKPSDDAVNTVTPWSILLTNNKPMSGSENTLNNESHEMSQILKKSGLCYDPRMRFHATLSEVDDHPEDPRRVLRVFEAIKKAGYVSNVPSPSDVFLRIPAREATLEELLQVHSQEMYDRVTNTEKMSHEDLANLEKISDSLYYNNESAFCARLACGSAIETCTAVVTGQVKNAFAVVRPPGHHAEPHKPGGFCLFNNVSVTARSMLQRFPDKIKRVLIVDWDIHHGNGTQMAFYDDPNVLYVSLHRYENGRFYPGTNYGCAENCGEGPGLGRTVNIPWSCAGMGDGDYIYAFQRVVMPVAYEFDPDLVIVSCGFDAAAGDHIGQFLLTPAAYAHMTQMLMGLADGKVFISLEGGYNLDSISTSALAVAQSLLGIPPGRLHTTYACPQAVATINHVTKIQSQYWRCMRPKHFDANPKDAHVDRLHDVIRTYQAKKLFEDWKITNMPILRDSVSNVFNNQVLCSSNFFQKDNLLVIVHESPRVLGNGTSETNVLNLNDSLLVDPVSLYVEWAMQQDWGLIDINIPEVVTDGENAPVDILSEVKELCLYVWDNYVELSISKNIFFIGGGKAVHGLVNLASSRNVSDRVKCMVNFLGTEPLVGLKTASEEDLPTWYYRHSLVFVSSSNECWKKAKRAKRRYGRLMQSEHTETSDMMEQHYRAVTQYLLHLLQKARPTSQ", "notes": "Clr3, histone deacetylase, S. pombe; source: E. coli Rosetta, purified (Ni-NTA, Ulp1 digestion, Superdex); not shown: 6*His-Sumo, N-terminal, cleaved"}, "B5": {"name": "Sad1_(60-169) (domain or fragment, S. pombe, UniProt Q09825 60-169, looked up)", "chain": "ESITPKQRFPAPNFEQAYHSNIRYEQEESDNEEFENVVKNGHEASTNVFYESDGDDEEFVNEEYENSIDEESDDEGYSLNEDTTATNASFRYPMNQRSTRKSQFYSSKFK", "notes": "source: E. coli Rosetta, purified; not shown: GST, N-terminal, cleaved"}, "B6": {"name": "Sad1_(60-169) with charge-reverse mutations of D114 and E117 (domain or fragment)", "chain": "B5 chain with D55R, E58R"}, "B7": {"name": "Sad1_(60-169) F118A (domain or fragment, S. pombe, UniProt Q09825 60-169, looked up)", "chain": "B5 chain with F59A", "notes": "also called Sad1 F118A; source: E. coli Rosetta, purified; not shown: GST, N-terminal, cleaved"}}, "conditions_in_all_cases": "both partners purified", "key": {"Clr3 (untagged)": {"target": "B4", "experiment": "pull-down; GST-Sad1_(1-169) on glutathione beads with Sumo-Sir2 or untagged Clr3, in the absence of H2AB; same buffer as the histone pull-downs"}, "[1]": {"target": "T1, S. pombe H2AB fusion protein (H2B_(32-126)-H2A_(15-108)) (S. pombe, UniProt P04913 32-126; P04909 15-108)", "T1 construct": "histone H2A, S. pombe, residues 15-108; No linker between the two parts is told; Modified pCDF-Duet vector, His tag followed by a 3C site; also called single-chain fusion of H2A and H2B; H2A-H2B fusion protein; source: E. coli Rosetta, purified (3C digestion, Superdex); not shown: 6*His, N-terminal, cleaved", "T1 sequence (P04913 other isoform, or with tags, fused parts or gaps)": "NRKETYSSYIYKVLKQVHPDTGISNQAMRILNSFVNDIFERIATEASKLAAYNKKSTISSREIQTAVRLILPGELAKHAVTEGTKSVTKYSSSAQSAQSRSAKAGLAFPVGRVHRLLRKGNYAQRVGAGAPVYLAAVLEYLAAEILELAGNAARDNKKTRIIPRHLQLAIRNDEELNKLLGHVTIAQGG", "experiment": "ITC; MicroCal ITC200, 20 °C; 25 mM Tris-HCl pH 8.0, 400 mM NaCl, 2 mM DTT; Sad1 (500 μM) titrated into H2AB (50 μM)"}, "FITC labeled Clr3": {"target": "T2, FITC labeled Clr3 (S. pombe, UniProt P56523 1-687, FITC label)", "T2 construct": "Clr3, histone deacetylase, S. pombe; source: E. coli Rosetta, purified, labeled with the EZLabel Protein FITC Labeling Kit", "T2 sequence (looked up)": "B4 chain", "experiment": "MST; Monolith NT.115; 25 mM HEPES pH 7.5, 150 mM NaCl, 2 mM DTT; 20 nM FITC labeled Clr3; ligands (500 μM Sad1_(1-169) or 250 μM Sad1_(1-169)-H2AB complex) diluted by 12 gradients; medium MST power, 80% LED"}, "[2]": {"target": "T3, GST-Sad1_(1-169) with H2AB (Sad1-H2AB complex of the pull-downs) (S. pombe, UniProt Q09825 1-169; P04913 32-126; P04909 15-108)", "T3 construct": "histone H2A, S. pombe, residues 15-108; m1 with m5; source: E. coli Rosetta, purified proteins mixed; not shown: GST, N-terminal, kept; 6*His, N-terminal, cleaved", "T3 sequence (P04913 other isoform, or with tags, fused parts or gaps)": "as above", "experiment": "pull-down; GST-Sad1_(1-169) on glutathione beads with silencing factors in the presence of H2AB; same buffer as the histone pull-downs"}}, "note": "Changes are numbered by the printed parent chain. In names and notes the source's numbering stands.", "data": [{"binder": "B1", "values": [{"measurement": "binding result", "setting": "Clr3 (untagged)", "result": "binds"}]}, {"binder": "B2", "values": [{"measurement": "Kd", "setting": "[1]", "result": 9.5, "unit": "µM"}, {"measurement": "binding result", "setting": "FITC labeled Clr3", "result": "binds"}]}, {"binder": "B3", "values": [{"measurement": "binding result", "setting": "[2]", "result": "binds"}]}, {"binder": "B4", "values": [{"measurement": "binding result", "setting": "[2]", "result": "binds"}]}, {"binder": "B5", "values": [{"measurement": "binding result", "setting": "[1]", "result": "binds"}]}, {"binder": "B6", "values": [{"measurement": "fold decrease of binding affinity against wild-type Sad1_(60-169)", "setting": "[1]", "result": 5.6, "unit": "fold"}]}, {"binder": "B7", "values": [{"measurement": "binding result", "setting": "[1]", "result": "binds"}]}]}
